Laboratory results: patent US20160209421A1 (UNIVERSITY OF TOKYO, published 2016)
Values belong to the binder of their own block, whether it stands above or below them. Bridge positions count the residues as written; N and C are the ends. Square brackets hold non-standard residues; d marks the D form. * marks the point of attachment. chloroacetamidine = chloroacetamidine warhead on ornithine δ-NH2, N=C(CCl)*; Ahp(2) = CCCCC[C@H](N)C(=O)O; Orn = NCCC[C@H](N)C(=O)O

What was measured:
His-PAD4 = molecular target: T1, His-PAD4 (human, UniProt Q9UM07 1-663); experiment: SPR (Biacore T100, Ni-NTA sensor chip, His-PAD4 immobilized, peptide injected, 25 C)
T1 construct: Immobilised on a Ni-NTA sensor chip for SPR; No other PAD4 is described; also called peptidyl arginine deaminase 4; not shown: His tag
Method: Analysis of a reaction rate was performed at 25° C. using Biacore T100 instrument (GE healthcare) and a Ni-NTA sensor chip. His-PAD4 was immobilized on a chip surface. In any experiment, modified HBS-EP+(10 mM HEPES-KOH [pH 7.4], 150 mM NaCl, 50 μM EDTA, 0.05% Tween 20, 0.1% DMSO) was used as a running buffer. The reaction rate data were corrected by injecting five peptides having respectively different concentrations for one minute at a flow rate (10 mM HEPES-KOH [pH 7.4], 150 mM NaCl, 50 μM EDTA, 0.05% Tween 20, 0.1% DMSO). Peptide dissociation was performed for one minute during injection and for 3 minutes after the last injection.
Background binding was monitored by performing blank buffer injection twice before sample injection and once after sample injection in order to double reference with the surface of a negative control having no His-PAD4 bound thereto but having nickel. The binding sensorgram, the binding sensorgram was analyzed using the Biacore software.

Human PAD4 = Human PAD4 (human, UniProt Q9UM07 1-663); experiment: cell-based or functional assay
Human PAD4, sequence (Q9UM07 whole entry): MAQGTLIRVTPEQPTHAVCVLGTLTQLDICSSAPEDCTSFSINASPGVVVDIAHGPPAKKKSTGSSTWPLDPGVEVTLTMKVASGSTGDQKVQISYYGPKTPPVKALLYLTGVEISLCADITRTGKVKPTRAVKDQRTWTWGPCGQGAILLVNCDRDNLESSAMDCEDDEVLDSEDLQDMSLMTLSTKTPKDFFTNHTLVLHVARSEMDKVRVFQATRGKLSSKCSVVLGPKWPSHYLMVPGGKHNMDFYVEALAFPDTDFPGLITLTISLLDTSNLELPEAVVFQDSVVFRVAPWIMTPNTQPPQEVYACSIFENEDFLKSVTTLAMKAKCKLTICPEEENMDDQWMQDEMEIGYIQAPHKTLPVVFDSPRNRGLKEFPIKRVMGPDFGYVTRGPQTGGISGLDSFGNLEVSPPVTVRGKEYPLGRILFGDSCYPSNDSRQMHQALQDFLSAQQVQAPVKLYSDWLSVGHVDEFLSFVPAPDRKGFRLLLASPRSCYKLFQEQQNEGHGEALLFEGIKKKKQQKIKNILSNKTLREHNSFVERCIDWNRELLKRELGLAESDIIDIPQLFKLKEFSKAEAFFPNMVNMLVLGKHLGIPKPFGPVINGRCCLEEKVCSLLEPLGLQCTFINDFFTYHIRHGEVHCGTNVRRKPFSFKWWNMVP

T1 sequence (Q9UM07 whole entry): as above

Kd (His-PAD4): 0.0387 µM | koff (His-PAD4): 0.00356 s⁻¹ | kon (His-PAD4): 92100 M⁻¹ s⁻¹
B1: VB1C20 peptide (peptide)
peptide: {CH2CO}-[dF]DA[Ahp(2)]YPFRPP[Ahp(2)]AHC-NH2
modifications: thioether N-14
SMILES: CCCCC[C@@H]1NC(=O)[C@H](C)NC(=O)[C@H](CC(=O)O)NC(=O)[C@@H](Cc2ccccc2)NC(=O)CSC[C@@H](C(N)=O)NC(=O)[C@H](Cc2c[nH]cn2)NC(=O)[C@H](C)NC(=O)[C@H](CCCCC)NC(=O)[C@@H]2CCCN2C(=O)[C@@H]2CCCN2C(=O)[C@H](CCCNC(=N)N)NC(=O)[C@H](Cc2ccccc2)NC(=O)[C@@H]2CCCN2C(=O)[C@H](Cc2ccc(O)cc2)NC1=O

Kd (His-PAD4): 0.055 µM | koff (His-PAD4): 0.00664 s⁻¹ | kon (His-PAD4): 121000 M⁻¹ s⁻¹
B2: VB1C12 peptide (peptide)
peptide: {CH2CO}-[dF]NA[Ahp(2)]YPYRPP[Ahp(2)]TSC-NH2
modifications: thioether N-14
SMILES: CCCCC[C@@H]1NC(=O)[C@H](C)NC(=O)[C@H](CC(N)=O)NC(=O)[C@@H](Cc2ccccc2)NC(=O)CSC[C@@H](C(N)=O)NC(=O)[C@H](CO)NC(=O)[C@H]([C@@H](C)O)NC(=O)[C@H](CCCCC)NC(=O)[C@@H]2CCCN2C(=O)[C@@H]2CCCN2C(=O)[C@H](CCCNC(=N)N)NC(=O)[C@H](Cc2ccc(O)cc2)NC(=O)[C@@H]2CCCN2C(=O)[C@H](Cc2ccc(O)cc2)NC1=O

IC50 (read off the curve) (Human PAD4): ~8 µM
B3: VB1C12-Cl-amidine analog (peptide)
peptide: {CH2CO}-[dF]NA[Ahp(2)]YPY[Orn](chloroacetamidine)PP[Ahp(2)]TSC-NH2
modifications: thioether N-14
SMILES: CCCCC[C@@H]1NC(=O)[C@H](C)NC(=O)[C@H](CC(N)=O)NC(=O)[C@@H](Cc2ccccc2)NC(=O)CSC[C@@H](C(N)=O)NC(=O)[C@H](CO)NC(=O)[C@H]([C@@H](C)O)NC(=O)[C@H](CCCCC)NC(=O)[C@@H]2CCCN2C(=O)[C@@H]2CCCN2C(=O)[C@H](CCCNC(=N)CCl)NC(=O)[C@H](Cc2ccc(O)cc2)NC(=O)[C@@H]2CCCN2C(=O)[C@H](Cc2ccc(O)cc2)NC1=O
